Experimental data taken from patent publication US7943358B2, “Polymerase enhancing factor (PEF) extracts, PEF protein complexes, isolated PEF protein, and methods for purifying and identifying” (Agilent Technologies, Inc., priority 1997, dated 2011).

What was measured:
Type in all cases: biochemical
[1] = PPi detection with dATP in place of dUTP; settings: 1 hour at 72° C.
Method: […] The presence of PPi in the reaction mixture was then quantified using Sigma's Enzymatic Determination of Pyrophosphate kit (Sigma Product No. P7275). The kit utilizes a coupled enzyme system whereby two moles of NADH are oxidized to NAD^+ for each mole of PPi present in the reaction mixture. The oxidation of NADH is monitored spectrophotometrically at 340 nm. […] The reactions that contained 1800 ng of PEF produced twice as much PPi as those that contained 900 ng of PEF.

[2] = target: T1, cloned Pfu DNA polymerase (Pyrococcus furiosus, UniProt P61875); assay: 6.2 kb primer-template PCR enhancing assay
T1 sequence (P61875 1-775): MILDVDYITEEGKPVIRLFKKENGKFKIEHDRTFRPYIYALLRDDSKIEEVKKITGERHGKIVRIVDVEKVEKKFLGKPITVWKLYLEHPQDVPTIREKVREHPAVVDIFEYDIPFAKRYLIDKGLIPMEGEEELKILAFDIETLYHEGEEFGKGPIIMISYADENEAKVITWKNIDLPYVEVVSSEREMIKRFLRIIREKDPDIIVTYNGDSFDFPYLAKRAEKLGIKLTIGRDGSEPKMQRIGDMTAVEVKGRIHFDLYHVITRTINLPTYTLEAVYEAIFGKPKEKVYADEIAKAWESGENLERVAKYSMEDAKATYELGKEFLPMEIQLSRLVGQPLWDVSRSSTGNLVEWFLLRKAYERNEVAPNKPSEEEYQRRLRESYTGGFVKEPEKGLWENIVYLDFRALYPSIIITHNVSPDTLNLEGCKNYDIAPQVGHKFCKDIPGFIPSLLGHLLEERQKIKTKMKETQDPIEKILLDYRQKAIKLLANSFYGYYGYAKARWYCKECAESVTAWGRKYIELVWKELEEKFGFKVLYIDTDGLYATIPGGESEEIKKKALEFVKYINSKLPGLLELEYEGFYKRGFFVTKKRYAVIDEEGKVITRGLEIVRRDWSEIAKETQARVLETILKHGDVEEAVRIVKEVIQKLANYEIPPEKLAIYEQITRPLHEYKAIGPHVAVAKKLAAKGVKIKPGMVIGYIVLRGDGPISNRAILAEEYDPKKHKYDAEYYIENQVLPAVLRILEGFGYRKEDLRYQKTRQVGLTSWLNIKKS
Method: One embodiment of an assay used to screen for PEFs, in this case from Pyrococcus furiosus, involved amplifying a 6.2 kb target from transgenic mouse DNA (6.2 kb primer-template assay). A master PCR cocktail was prepared consisting of: 200 μM each dNTP, 2 μg/ml primer F432-21 (5′-CTA-TTG-AGT-ACG-AAC-GCC-ATC) (SEQ ID NO.: 62), 2 μg/ml primer R6656-20 (GTC-ACG-CTT-GCT-CCA-CTC-CG) (SEQ ID NO: 63), 2.5 μg/ml λAA742 DNA (transgenic mouse DNA having 40 copies of a lambda phage DNA shuttle vector), 1× cloned Pfu DNA polymerase PCR buffer (10 mM KCl, 10 mM (NH4)2SO4, 20 mM Tris-HCl (pH 8.8), 2 mM MgSO4, 0.1% (v/v) Triton X-100, and 100 μg/ml BSA), and 25 U/ml cloned Pfu DNA polymerase. Samples were diluted in 1× cloned Pfu DNA polymerase PCR buffer, and 1 μl of each diluted sample was added to 24 μl of the PCR cocktail. PCR amplifications were conducted on the RoboCycler 96 Temperature Cycler (Stratagene), using the following conditions: 96° C. for 45 s (1 cycle)/96° C. for 45 s; 60° C. for 45 s; 72° C. for 14 min. (35 cycles)/72° C. for 10 min. (1 cycle). PCR products (10 μl/lane) are run out on 1% agarose gels and PCR product bands visualized by ethidium bromide staining. […] When PCR enhancement is due to the presence of PEFs, rather than contaminating endogenous DNA polymerase activity, amplifications performed in the absence of […] yield no PCR product. Moreover, PCR amplifications performed in the absence of exogenous DNA template should yield no PCR product when the PEF sample lacks contaminating target DNA.

[3] = Reverse phase HPLC analysis of dUTP conversion; settings: 72° C.
Method: (§1) The similarity of P45 to dCTP deaminases prompted us to test whether dCTP or other nucleotide triphosphates were substrates of PEF/P45. PEF was incubated with dCTP or dUTP and the reaction products were separated by reverse phase HPLC. Reaction mixtures (50 μl) containing 1× cloned Pfu polymerase buffer, 10 mM dCTP or dUTP, and 700 ng PEF (or 5 μl of cloned p45 (˜100 ng) or nothing (neg. control)) were incubated at 72° C. for 1 hour. The samples were injected on a […] Waters Delta-pak C-18 column (300 angstrom/15 μm), equilibrated in 50 mM triethylammonium acetate, pH (7.0) (A). Products were eluted with acetonitrile (B) at 2 ml/min. using the following gradient: 0% B for 5 minutes, 0-10% B over 20 minutes. Absorbence of the eluate was monitored with a photodiode array detector, and peak areas were integrated at 260 nm.
In a separate Western assay, samples from Thermus thermophilis were run out on an SDS-PAGE gel and probed with the rP45 antisera. […] The PEF as dUTPase activity in these samples was further confirmed by a dUTP conversion assay employing reverse phase HPLC.

[4] = Reverse phase HPLC analysis of dCTP conversion
Method: as §1

[5] = PCR cycling of dCTP in the presence of PEF or Pfu DNA polymerase, HPLC; settings: 10 mM dCTP, 0.5 ng PEF/μl

B1: PEF: polymerase enhancing factor complex purified from Pyrococcus furiosus; predominant components P50 and P45 (protein)
chain 1: MLHHVKLIYATKSRKLVGKKIVXXXPGSIAALDVKACEGLIRHGAEVHAVMSEAATKIIHPYAWNLPTGNPVITEITGFIEHVELAGEHENKADLILVCPATANTISKIACGIDDTPVTTVVTTAFPHIPIMIAPAMHETMYRHPIVRENIERLKKLGVEFIGPRIEEGRAKVASIDEIVYRVIKKLHKKTLEGKRVLVTAGATREYIDPIRFITNASSGKMGVALAEEADFRGAVTLIRTKGSVKAFRIRKIKLKVETVEEMLSAIENELRSKKYDVVIMAAAVSDFRPKIKAEGKIKSGRSITIELVPXNPKIIDRIKEIQPNVFLVGFKAETSKEKLIEEGKRQIERAKADLVVGNTLEAFGSEENQVVLIGRDFTKELPKMKKRELAERIWDEIEKXLS
chain 2: MLLPDWKIRKEILIEPFSEESLQPAGYDLRVGREAFVKGKLIDVEKEGKVVIPPREYALILTLERIKLPDDVMGDMKIRSSLAREGVIGSFAWVDPGWDGNLTLMLYNASNEPVELRYGERFVQIAFIRLEGPARNPYRGNYQGSTRLAFSKRKKL
modifications: not fully specified; X: residue not identified in the source
notes: polymerase enhancing factor complex purified from Pyrococcus furiosus; predominant components P50 and P45
In the case of B1, the “PPi detected with dATP in place of dUTP” value [1] is reported as “No PPi was detected”, the “excess PEF giving lower PCR product yield” value [2] is reported as ≥ 900 ng/100 μl and the “PEF concentration range enhancing performance of Pfu DNA polymerase in PCR” value ([2]; 10,000-fold range) is reported as 0.09-900 ng/100 μl. For the same molecule, the “very low PEF concentration giving lower PCR product yield” value ([2]; listed as substantially homogeneous PEF) was < 9 pg/100 μl, the “dUTP peak after incubation” value ([3]; 10 mM dUTP, one hour) was 0.1 % total peak area and the “new peak eluting at 4.400 minutes (dUMP)” value ([3]; 10 mM dUTP, one hour) was 98 % total peak area. For the same molecule, the dUTP converted ([3]; 1 hour, 700 ng PEF) was 100%, the “deamination of dCTP” value [4] was “No deamination” and the dCTP converted ([4]; 1 hour, 72° C., 700 ng PEF) was 16.6%. The “dCDP after PCR cycling in presence of PEF” value [5] was 19%, the “dCMP after PCR cycling in presence of PEF” value [5] was 8% and the “dCTP after PCR cycling in presence of PEF” value [5] was 73%. For the same molecule, the “dUTP after PCR cycling in presence of PEF” value [5] was “no detectable dUTP”.
